Results published in patent US20150086555A1.

Key:
Conditions in all cases: remark: other sources report otherwise
[1] = molecular target: recombinant soluble homotrimeric HA, A/Hong Kong/156/97 H5N1 (Influenza A virus A/Hong Kong/156/97 (H5N1)); experiment: microarray, transfection SN IgG, trimeric HA
[2] = molecular target: recombinant soluble homotrimeric HA, A/Japan/305/57 H2N2 (Influenza A virus A/Japan/305/1957(H2N2)); experiment: microarray, transfection SN IgG, trimeric HA
[3] = molecular target: recombinant soluble homotrimeric HA, A/chicken/Vietnam/NCVD-016/08 H5N1 (Influenza A virus A/chicken/Vietnam/NCVD-016/2008(H5N1)); experiment: microarray, transfection SN IgG, trimeric HA
[4] = molecular target: recombinant soluble homotrimeric HA, A/Egypt/3300-NAMRU3/08 H5N1 (Influenza A virus A/Egypt/3300-NAMRU3/2008(H5N1)); experiment: microarray, transfection SN IgG, trimeric HA
[5] = molecular target: recombinant soluble homotrimeric HA, A/Indonesia/5/05 H5N1 (Influenza A virus A/Indonesia/5/2005(H5N1)); experiment: microarray, transfection SN IgG, trimeric HA
[6] = molecular target: recombinant soluble homotrimeric HA, A/Wisconsin/67/05 H3N2 (Influenza A virus A/Wisconsin/67/2005(H3N2)); experiment: microarray, transfection SN IgG, trimeric HA
[7] = molecular target: recombinant soluble homotrimeric HA, A/swine/Ontario/01911-2/99 H4N6 (Influenza A virus A/Swine/Ontario/01911-2/99 (H4N6)); experiment: microarray, transfection SN IgG, trimeric HA
[8] = molecular target: recombinant soluble homotrimeric HA, A/South Carolina/1/18 H1N1 (Influenza A virus A/South Carolina/1/18 (H1N1)); experiment: microarray, transfection SN IgG, trimeric HA
[9] = molecular target: recombinant soluble homotrimeric HA, A/Solomon Islands/3/06 H1N1 (Influenza A virus A/Solomon Islands/3/2006(H1N1)); experiment: microarray, transfection SN IgG, trimeric HA
[10] = molecular target: recombinant soluble homotrimeric HA, A/Vietnam/1203/04 H5N1 (Influenza A virus A/VietNam/1203/2004(H5N1)); experiment: microarray, transfection SN IgG, trimeric HA
[11] = molecular target: recombinant soluble homotrimeric HA, A/California/4/09 H1N1 (Influenza A virus A/California/04/2009(H1N1)); experiment: microarray, transfection SN IgG, trimeric HA
[12] = molecular target: recombinant soluble homotrimeric HA, A/Anhui/1/05 H5N1 (Influenza A virus A/Anhui/1/2005(H5N1)); experiment: microarray, transfection SN IgG, trimeric HA
[13] = molecular target: recombinant soluble homotrimeric HA, A/duck/Yangzhou/02/05 H8N4 (Influenza A virus A/duck/Yangzhou/02/2005(H8N4)); experiment: microarray, transfection SN IgG, trimeric HA
[14] = molecular target: recombinant soluble homotrimeric HA of A/South Carolina/1/18 (H1N1) (Influenza A virus A/South Carolina/1/18 (H1N1)); experiment: trimeric HA microarray, transfection supernatant set 2
[15] = molecular target: recombinant soluble homotrimeric HA of A/Indonesia/5/05 (H5N1) (Influenza A virus A/Indonesia/5/2005(H5N1)); experiment: as above
[16] = molecular target: recombinant soluble homotrimeric HA of A/Japan/305/57 (H2N2) (Influenza A virus A/Japan/305/1957(H2N2)); experiment: as above
[17] = molecular target: recombinant soluble homotrimeric HA of A/Netherlands/219/03 (H7N7) (Influenza A virus A/Netherlands/219/03(H7N7)); experiment: as above
[18] = molecular target: recombinant soluble homotrimeric HA of A/Solomon Islands/3/06 (H1N1) (Influenza A virus A/Solomon Islands/3/2006(H1N1)); experiment: as above
[19] = molecular target: T1, recombinant soluble homotrimeric HA of A/Egypt/3300-NAMRU3/08 (H5N1) (Influenza A virus A/Egypt/3300-NAMRU3/2008(H5N1)); experiment: as above
[20] = molecular target: recombinant soluble homotrimeric HA of A/Anhui/1/05 (H5N1) (Influenza A virus A/Anhui/1/2005(H5N1)); experiment: as above
[21] = molecular target: recombinant soluble homotrimeric HA of A/California/4/09 (H1N1) (Influenza A virus A/California/04/2009(H1N1)); experiment: as above
[22] = molecular target: recombinant soluble homotrimeric HA of A/Vietnam/1203/04 (H5N1) (Influenza A virus A/VietNam/1203/2004(H5N1)); experiment: as above
[23] = molecular target: recombinant soluble homotrimeric HA of A/chicken/Vietnam/NCVD-016/08 (H5N1) (Influenza A virus A/chicken/Vietnam/NCVD-016/2008(H5N1)); experiment: as above
[24] = molecular target: recombinant soluble homotrimeric HA, A/northern shoveler/California/HKWF115/07 H6N4 (Influenza A virus A/northern shoveler/California/HKWF115/2007(H6N1)); experiment: microarray, transfection SN IgG, trimeric HA
[25] = molecular target: T1, recombinant soluble homotrimeric HA of …; experiment: HA microarray, BCC supernatant
[26] = molecular target: recombinant homotrimeric HA A/swine/Ontario/01911-2/99 H4N6 (Influenza A virus A/Swine/Ontario/01911-2/99 (H4N6)); experiment: protein microarray, purified IgG, trimeric HA
[27] = molecular target: recombinant homotrimeric HA A/duck/Yangzhou/02/05 H8N4 (Influenza A virus A/duck/Yangzhou/02/2005(H8N4)); experiment: protein microarray, purified IgG, trimeric HA

B1: TCN-504 (3251_K17) (antibody, V domains shown)
VH: QVQLQESGPGLVKPSETLSLTCAVSGVSISNIDFYWGWIRQPPGKGLEWIGNIYYTGITFYNPSLSSRVAISIDTSKNQFSLTLTSVTAADTAMYYCARHYGDSEAINDAFDIWGQGTMLTVSS
VL: EIVMTQSPATLSVSPGERATLSCRASQSVGNSLAWYQQRPGQAPRLLIYGASTRATGIPPRFSGSGSGTEFTLTISSLQTEDFAVYYCQQYINWRPLSFGGGTKVEIK
- Trimeric HA Binding: RLU [1]: 26600 RLU
- Trimeric HA Binding: RLU [2]: 23300 RLU
- Trimeric HA Binding: RLU [3]: 34200 RLU
- Trimeric HA Binding: RLU [4]: 20600 RLU
- Trimeric HA Binding: RLU [5]: 18500 RLU
- Trimeric HA Binding: RLU [6]: 38100 RLU
- Trimeric HA Binding: RLU [7]: 54800 RLU
- Trimeric HA Binding: RLU [8]: 32000 RLU
- Trimeric HA Binding: RLU [9]: 30100 RLU
- Trimeric HA Binding: RLU [10]: 21500 RLU
- Trimeric HA Binding: RLU [11]: 17600 RLU
- Trimeric HA Binding: RLU [12]: 37200 RLU
- Trimeric HA Binding: RLU [13]: 35100 RLU
- Trimeric HA Binding: RLU [14]: 24700 RLU
- Trimeric HA Binding: RLU [15]: 19700 RLU
- Trimeric HA Binding: RLU [16]: 22600 RLU
- Trimeric HA Binding: RLU [17]: 19300 RLU
- Trimeric HA Binding: RLU [18]: 31400 RLU
- Trimeric HA Binding: RLU [19]: 21400 RLU
- Trimeric HA Binding: RLU [20]: 31000 RLU
- Trimeric HA Binding: RLU [21]: 15600 RLU
- Trimeric HA Binding: RLU [22]: 15000 RLU
- Trimeric HA Binding: RLU [23]: 27300 RLU

B2: TCN-523 (5248_A17) (antibody, V domains shown)
VH: QVQLVQSGAEVKKPGSSVKVSCKASGGSFSNYAFSWVRQAPGQGLEWMGGTIPLLGTTNYAQKFQGRVTISADQFTSTAYMELGSLRSEDTAVYYCTRRKMTTAFDSWGQGTLVTVSS
VL: QPVLTQPPSASASLGASVTLTCTLSSAYSNYKVDWYQQRPGKGPRFVMRVGTGGIVGSKGDGIPDRFSVLGSGLNRYLTIKNIQEEDESDYHCGADHGSGSNFVSPYVFGGGTKLTVL
- Trimeric HA Binding: RLU [1]: 28400 RLU
- Trimeric HA Binding: RLU [2]: 22000 RLU
- Trimeric HA Binding: RLU [3]: 51300 RLU
- Trimeric HA Binding: RLU [4]: 35500 RLU
- Trimeric HA Binding: RLU [5]: 55000 RLU
- Trimeric HA Binding: RLU [8]: 52000 RLU
- Trimeric HA Binding: RLU [24]: 46900 RLU
- Trimeric HA Binding: RLU [9]: 37600 RLU
- Trimeric HA Binding: RLU [10]: 27800 RLU
- Trimeric HA Binding: RLU [11]: 34400 RLU
- Trimeric HA Binding: RLU [12]: 6080 RLU
- Trimeric HA Binding: RLU [14]: 25500 RLU
- Trimeric HA Binding: RLU [15]: 24500 RLU
- Trimeric HA Binding: RLU [16]: 882 RLU
- Trimeric HA Binding: RLU [17]: 407 RLU
- Trimeric HA Binding: RLU [18]: 3270 RLU
- Trimeric HA Binding: RLU [19]: 30700 RLU
- Trimeric HA Binding: RLU [20]: 139 RLU
- Trimeric HA Binding: RLU [21]: 18700 RLU
- Trimeric HA Binding: RLU [22]: 26200 RLU
- Trimeric HA Binding: RLU [23]: 17600 RLU
- Trimeric HA Binding: RLU [25]: 36500 RLU
- Trimeric HA Binding: RLU [26]: 85 RLU

B3: TCN-522 (3212_I12) (antibody, V domains shown)
VH: QVQLQQWGAGLLKPSETLSLTCTVSGGSLTDYSWNWIRQPPGKGLEWIGDTLHNGYTNYNPSLRGRVSISIDTSKNQVSLRLTSVTAADTALYYCARGSGGYGGFDYFGKLRTWDFWGQGTLVTVSS
VL: DIQLTQSPSSLSASVGDRVTITCRASQGIRNDLGWYQQKPGNAPKRLIFGASSLQSGVPSRFSGSGSGTEFTLTISSLQPEDFATYYCLQHNSYPYTFGQGTKLEIK
- Trimeric HA Binding: RLU [14]: 39600 RLU
- Trimeric HA Binding: RLU [15]: 50500 RLU
- Trimeric HA Binding: RLU [16]: 11900 RLU
- Trimeric HA Binding: RLU [17]: 2170 RLU
- Trimeric HA Binding: RLU [18]: 17300 RLU
- Trimeric HA Binding: RLU [19]: 55400 RLU
- Trimeric HA Binding: RLU [20]: 2030 RLU
- Trimeric HA Binding: RLU [21]: 37500 RLU
- Trimeric HA Binding: RLU [22]: 48200 RLU
- Trimeric HA Binding: RLU [23]: 49300 RLU
- Trimeric HA Binding: RLU [26]: 73 RLU

B4: TCN-527 (5086_C06) (antibody, V domains shown)
VH: QVQLQESGPGLVKPSETLSLNCAVSGGSISNYYWSWIRQPPGKGLEWIGYISYNGRPKYNPSLTSRVTISVDTSKDQFSLELRSVTAADTALYYCARETRFGELLSPYDAFEIWGQGTMVTVSS
VL: DIQMTQSPSSLSASVGDRVTMTCRASQNIRSYLNWYQQRPGTAPKLLIYAASTLHSGVPSRFSGGGSGTDFTLTINNLQPEDFASYYCQQSYDNPQTFGQGTKVEIK
- Trimeric HA Binding: RLU [14]: 48100 RLU
- Trimeric HA Binding: RLU [15]: 23400 RLU
- Trimeric HA Binding: RLU [16]: 20800 RLU
- Trimeric HA Binding: RLU [17]: 49100 RLU
- Trimeric HA Binding: RLU [18]: 19700 RLU
- Trimeric HA Binding: RLU [19]: 23600 RLU
- Trimeric HA Binding: RLU [20]: 15200 RLU
- Trimeric HA Binding: RLU [21]: 21500 RLU
- Trimeric HA Binding: RLU [22]: 20600 RLU
- Trimeric HA Binding: RLU [23]: 20100 RLU
- Trimeric HA Binding: RLU [27]: 26000 RLU
- Trimeric HA Binding: RLU [26]: 11100 RLU

B5: TCN-528 (5087_P17) (antibody, V domains shown)
VH: QVQLVQSGSEVKKPGASVKVSCKASGYTFTNYDINWIRQAPGQGLEWMGWINPNSGTTGSAQRFQGRVTITVDTSITTVYMELSSLRSDDTAIYYCARGRELLRLQHFLTDSQSERRDCFDPWGQGTLVTVSS
VL: DIQMTQSPSSLSASVGDRVTITCRANQDIGIYLNWYQQNPGKVPKLLLHGASSLQGGVPSRFSASGSGTDFTLTIHSLQPEDLATYYCQQSRRLPYTFGQGTRVELK
- Trimeric HA Binding: RLU [14]: 25200 RLU
- Trimeric HA Binding: RLU [15]: 39700 RLU
- Trimeric HA Binding: RLU [16]: 23100 RLU
- Trimeric HA Binding: RLU [17]: 47200 RLU
- Trimeric HA Binding: RLU [18]: 26900 RLU
- Trimeric HA Binding: RLU [19]: 36800 RLU
- Trimeric HA Binding: RLU [20]: 21200 RLU
- Trimeric HA Binding: RLU [21]: 44600 RLU
- Trimeric HA Binding: RLU [22]: 23300 RLU
- Trimeric HA Binding: RLU [23]: 22600 RLU
- Trimeric HA Binding: RLU [27]: 24100 RLU
- Trimeric HA Binding: RLU [26]: 9490 RLU
